In the supplement of paper PMC9732359:
± gives the uncertainty stated by the source.

Test: protein stability index of a GFP-peptide fusion (yeast GPS) (PSI 1-4); higher = more stable; sorted into four equal gates, so the index is relative within each strain
In short: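 Peptides tiling yeast proteins in 17-residue segments were fused downstream of GFP, with Cherry expressed from the same plasmid. As a pooled library in yeast, mid-log cultures grown in leucine-free medium were sorted into four equal gates by GFP/Cherry fluorescence ratio. Gate plasmids were PCR-amplified and Illumina-sequenced, and barcodes linked reads to strains. Each peptide received a protein stability index equal to the sum of each gate's read frequency times its gate number.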

Row | Sequence | protein stability index (doa10∆) | protein stability index (pdr5∆) | protein stability index (san1∆) | protein stability index (ubr1∆)
1 | SNIPTLIEKLQGFSKDT [YDL116W/NUP84] | 3.22 ± 0.1 | 3.23 ± 0.088 | 3.01 ± 0.05 | 3.17 ± 0.073
2 | QKMAKAKKQNRPLPQWI [RPL39] | 2.97 ± 0.13 | 3.07 ± 0.057 | 3 ± 0.081 | 3.14 ± 0.059
3 | KSSELELQKLVHDLNKY [SMC2] | 3.22 ± 0.088 | 3.41 ± 0.079 | 3.36 ± 0.045 | 3.4 ± 0.05
4 | LEATWNFIEPGINQILG [CDC53] | 2.95 ± 0.29 | 2.75 ± 0.27 | 3.38 ± 0.1 | 3.08 ± 0.12
5 | WLETYSENRDKFLQEFI [IRR1] | 2.97 ± 0.096 | 1.93 ± 0.11 | 2.58 ± 0.096 | 1.92 ± 0.1
6 | QLSQDEHSQVEQTCVKL [SRP72] | 3.17 ± 0.16 | 3.24 ± 0.064 | 3.1 ± 0.094 | 3.25 ± 0.084
7 | AIHIFESYYNWKYNNFL [YML103C/NUP188] | 2.04 ± 0.13 | 1.6 ± 0.1 | 1.94 ± 0.24 | 2.62 ± 0.17
8 | LGKKKATVDEFPLCVHL [RPL10] | 3.1 ± 0.19 | 2.67 ± 0.14 | 3 ± 0.29 | 2.71 ± 0.069
9 | GSHLFSIHAHGSTDVGY [PUP1] | 2.58 ± 0.078 | 3.01 ± 0.15 | 2.92 ± 0.077 | 2.02 ± 0.081
10 | KFFRVKYENKISTVIEV [SMC3] | 1.35 ± 0.13 | 1.2 ± 0.11 | 1.09 ± 0.28 | 1.12 ± 0.087
11 | TKKTITPMGGFVHYGEI [RPL3] | 3.2 ± 0.074 | 3.1 ± 0.072 | 3.08 ± 0.093 | 3.01 ± 0.046
12 | KKTVAGGAYTVSTAAAA [RPL43A] | 2.43 ± 0.068 | 2.46 ± 0.065 | 2.15 ± 0.074 | 2.15 ± 0.05
13 | YQKLFSQFINDHILFTK [SRB8] | 1.94 ± 0.044 | 2.06 ± 0.048 | 2.04 ± 0.065 | 2 ± 0.04
14 | MSIGTGSFKVVKGTNIS [RPO31] | – | 2.19 ± 0.15 | – | –
15 | KFKRHHSDRYHRVAENW [RPL32] | 3 ± 0.072 | 3.21 ± 0.065 | 3.2 ± 0.05 | 3.07 ± 0.045
16 | YKWTQGINNLSEIWDVS [PRP8] | 3.03 ± 0.1 | 2.9 ± 0.077 | 3.12 ± 0.099 | 2.44 ± 0.066
17 | TIPLGGSVHKLPYAIAG [PRE3] | 2.97 ± 0.066 | 2.91 ± 0.085 | 2.84 ± 0.089 | 3.08 ± 0.045
18 | SLENNIREFPEYFAAQA [RPL10] | 2.3 ± 0.065 | 2.66 ± 0.068 | 2.75 ± 0.05 | 2.52 ± 0.062
19 | NNTTTTSTKPSFSFGAP [YOR098C/NUP1] | 3.26 ± 0.11 | 3.38 ± 0.1 | 3.04 ± 0.056 | 3.01 ± 0.076
20 | YFSNKTSTGIIRCHRED [POP5] | 2.98 ± 0.17 | 2.68 ± 0.1 | 2.62 ± 0.081 | 2.06 ± 0.059
21 | SLSAYNLTDEGYQWGEE [PRP8] | 3.33 ± 0.22 | 3.12 ± 0.15 | – | 3.33 ± 0.19
22 | HKKKRSNAAGADDAISM [SRB8] | 3.06 ± 0.11 | 2.45 ± 0.067 | 2.83 ± 0.18 | 2.75 ± 0.054
23 | YIESKFCPGEIVGKSNV [YMR129W/POM152] | 2.86 ± 0.1 | 2.92 ± 0.1 | – | 2.65 ± 0.07
24 | IEALYDDDTFSDREMAA [RPN2] | 2.19 ± 0.066 | 1.89 ± 0.051 | 1.57 ± 0.1 | 2.13 ± 0.054
25 | QIEGPFLIIVPKSTLDN [ISW2] | 2.88 ± 0.13 | 2.12 ± 0.1 | 2.17 ± 0.088 | 1.75 ± 0.097
26 | DDPSKVRLLCRSDGMGN [YLR335W/NUP2] | 2.94 ± 0.26 | 3.66 ± 0.19 | 2.98 ± 0.16 | 2.96 ± 0.15
27 | YVGEVIKIVSDKKVLVK [RPT6] | 3.03 ± 0.058 | 2.9 ± 0.055 | 3.08 ± 0.067 | 2.94 ± 0.073

Row | Sequence | protein stability index (doa10∆) | protein stability index (pdr5∆) | protein stability index (san1∆) | protein stability index (ubr1∆)
28 | KRPYESSRLDAELKLAG [RPS9A] | 3.24 ± 0.088 | 3.05 ± 0.065 | 2.81 ± 0.072 | 2.96 ± 0.14
29 | KATAAKKAVVKGTNGKK [RPL25] | 3.3 ± 0.15 | 2.05 ± 0.1 | 1.53 ± 0.17 | 1.29 ± 0.22
30 | EYTINLHKRLHGVSFKK [RPL31A] | 2.24 ± 0.093 | 2.19 ± 0.088 | 2.14 ± 0.11 | 1.61 ± 0.061
31 | LGVKSRLLEKSELPDIY [SNF2] | 3.12 ± 0.13 | 3.42 ± 0.15 | 3.05 ± 0.082 | 3.11 ± 0.19
32 | TTSEKQEVTNEAPFLTS [GAL11] | 3.2 ± 0.093 | 3.35 ± 0.076 | 3.14 ± 0.11 | 3.36 ± 0.067
33 | IKIVSDKKVLVKVQPEG [RPT6] | 2.75 ± 0.1 | 2.83 ± 0.09 | 2.85 ± 0.12 | 2.74 ± 0.07
34 | SVHHARVLITQRHIAVG [RPS9A] | – | 1.31 ± 0.14 | – | –
35 | LQRTILNRIINHMLIDS [RGR1] | 2.76 ± 0.057 | 2.4 ± 0.081 | 2.21 ± 0.093 | 1.72 ± 0.066
36 | YKIPKVMKDIYKVENVT [ESC2] | – | 3.52 ± 0.16 | – | –
37 | NVQLRDVIATEPQGAVT [SMD3] | 2.96 ± 0.069 | 2.98 ± 0.1 | 2.39 ± 0.09 | 2.67 ± 0.071
38 | SKPESSVLQLIVSEDHI [MED1] | 2.14 ± 0.16 | 2.17 ± 0.079 | 2.06 ± 0.14 | 2.7 ± 0.092
39 | SSRTKFWSFLDSLIFKD [YJL039C/NUP192] | 2.78 ± 0.18 | 2.87 ± 0.17 | – | 2.72 ± 0.12
40 | IINKLIHIQSKENYPWE [POP3] | 2.65 ± 0.067 | 2.44 ± 0.047 | 1.81 ± 0.068 | 2.41 ± 0.045
41 | TPVQPDLSVTPQKSSSK [YAR002W/NUP60] | 3.15 ± 0.04 | 3.15 ± 0.04 | 3.057 ± 0.026 | 3.093 ± 0.027
42 | VSNSGAQDEEIHKQIVI [UBP6] | 3.17 ± 0.16 | 3.5 ± 0.14 | 3.08 ± 0.14 | 3.16 ± 0.11
43 | KNINIGKHSQEQNSSSA [SIR4] | 3 ± 0.072 | 3.13 ± 0.082 | 3.29 ± 0.1 | 3.25 ± 0.057
44 | RKSAPVDSWDREFLKVD [SKP1] | 3.25 ± 0.13 | 3.27 ± 0.094 | 3.04 ± 0.1 | 3.19 ± 0.078
45 | TRLWGSVYYHKGNFRTK [SNU114] | 3.35 ± 0.064 | 3.46 ± 0.093 | 3.35 ± 0.06 | 3.32 ± 0.082
46 | NDQVEKDAEDETSSDGS [RPN1] | 2.63 ± 0.15 | 2.42 ± 0.096 | 2.04 ± 0.17 | 2.59 ± 0.13
47 | QIELSCNERVPLSVATE [SRP72] | 2.11 ± 0.04 | 2.21 ± 0.053 | 2.1 ± 0.087 | 2.12 ± 0.04
48 | LAQLTSKLIPEVINKEI [RPS1A] | 2.82 ± 0.1 | 3.28 ± 0.1 | 2.92 ± 0.073 | 2.71 ± 0.07
49 | DEVTIRRTVGLKKDDYQ [SMC3] | 2.66 ± 0.12 | 2.53 ± 0.099 | 2.32 ± 0.13 | 2.35 ± 0.071
50 | TWEECVFFDDDPLYDIT [REC8] | 3 ± 0.13 | 3.24 ± 0.14 | 2.95 ± 0.06 | 3.08 ± 0.059
51 | LGNHAITIDSVVDANGC [YMR129W/POM152] | 2.42 ± 0.096 | 1.95 ± 0.08 | 2.56 ± 0.07 | 2.79 ± 0.085
52 | TGANSIYSVEKKISRLP [UBP6] | 3 ± 0.08 | 3.52 ± 0.11 | 3.07 ± 0.059 | 3.26 ± 0.037
53 | MTTQQEEQRSDTKNSKS [ISW2] | 3.26 ± 0.17 | 3.08 ± 0.18 | 2.73 ± 0.26 | 3.2 ± 0.19
54 | QVSINSNKILVYESEME [YIL149C/MLP2] | 2.3 ± 0.11 | 3 ± 0.16 | 1.71 ± 0.21 | 2.92 ± 0.16
